These results are taken from patent US20200262927A1 (OXFORD BIOTHERAPEUTICS, published 2020).

The target in assay [1] is T1, Recombinant hCRTAM/Fc Chimera (R&D Systems, Catalogue 1695-CR) (human, UniProt O95727 18-286).
T1 construct: also called human recombinant hCRTAM/Fc chimera; Fc part of the bought chimera not given
T1 sequence: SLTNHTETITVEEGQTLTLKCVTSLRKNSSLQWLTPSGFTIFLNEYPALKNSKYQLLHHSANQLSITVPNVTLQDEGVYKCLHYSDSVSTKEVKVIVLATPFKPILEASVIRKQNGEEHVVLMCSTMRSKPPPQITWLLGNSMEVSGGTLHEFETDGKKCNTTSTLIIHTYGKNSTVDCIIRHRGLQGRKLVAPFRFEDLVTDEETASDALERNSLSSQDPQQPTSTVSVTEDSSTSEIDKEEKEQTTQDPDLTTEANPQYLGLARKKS
The experiment in a line: Octet BLI, antibody captured on anti-human IgG Fc biosensors, hCRTAM/Fc chimera as analyte, global 1:1 fit. As for the experimental part:
(§1) Anti-human IgG-Fc Capture (AHC) ForteBio biosensors were loaded with the test antibodies at a concentration of 1 μg/mL over 300 seconds.
(§2) The loaded biosensors were incubated with 5 concentrations of human recombinant hCRTAM/Fc chimera starting at 200 nM, which was serially diluted 1:3; a reference well contained kinetic buffer only (to correct for drift).
(§3) The data from all concentrations were fit using a global 1:1 curve fit for each sample. Where possible the kinetic association and dissociation rates and the KD values were determined.

Assay [2] deals with T1, Recombinant hCRTAM/Fc Chimera (R&D …). Description: Octet BLI, antibody captured on anti-human IgG Fc biosensors, hCRTAM/Fc chimera as analyte from 200 nM diluted 1:3, global 1:1 fit. The procedure: as §1, §2, §3
In general terms: BLI is a label-free optical method that tracks binding on a fibre tip over time.

B1: humanised 5A11 antibody (antibody, V domains shown)
VH: EVQLVESGGGLVQPGGSLKLSCAASGFTFSDAAMYWVRQASGKGLEWVARIRTKTNNYAAHYVESVKGRFTVSRDDSKNTVYLQMNSLKTEDTAMYYCTSVPQGTQDYWGQGTLVTVSS
VL: SYELTQPSSVSVSPGQTARITCSGDVLSKRYAQWSQQKPGQAIVSVIYKDSERPSGIPERFSGSSSGTTATLTISGAQVEDEADYYCLSTYADDNLPVFGGGTKLTVL
notes: Captured on anti-human IgG Fc biosensors, so it carried a human IgG Fc; also called humanized antibody 5A11
Take B1: in assay [1], the koff worked out at 0.00011 s⁻¹ and the association rate constant (kon) was 249000 M⁻¹ s⁻¹. For the same molecule, the dissociation constant Kd in assay [2] stood at 439 pM.

For orientation: koff means a measure of how fast the partners let go of each other. Broadly, the kon is the rate constant with which the complex forms. Broadly, the Kd is the free concentration of one partner at which half of the binding sites on the other are occupied at equilibrium, for simple one-to-one binding.
